Results on 19 molecules are retold here after US20240092890A1 (JUNTENDO EDUCATIONAL FOUNDATION, published 2024).

Numbering of substitutions follows the chain as printed.

For assay [1], the target named is T1, Ins 5 type mutant CALR protein on UT-7/TPO CALR Ins 5 cells (UniProt P27797 18-417).
T1 sequence (looked up): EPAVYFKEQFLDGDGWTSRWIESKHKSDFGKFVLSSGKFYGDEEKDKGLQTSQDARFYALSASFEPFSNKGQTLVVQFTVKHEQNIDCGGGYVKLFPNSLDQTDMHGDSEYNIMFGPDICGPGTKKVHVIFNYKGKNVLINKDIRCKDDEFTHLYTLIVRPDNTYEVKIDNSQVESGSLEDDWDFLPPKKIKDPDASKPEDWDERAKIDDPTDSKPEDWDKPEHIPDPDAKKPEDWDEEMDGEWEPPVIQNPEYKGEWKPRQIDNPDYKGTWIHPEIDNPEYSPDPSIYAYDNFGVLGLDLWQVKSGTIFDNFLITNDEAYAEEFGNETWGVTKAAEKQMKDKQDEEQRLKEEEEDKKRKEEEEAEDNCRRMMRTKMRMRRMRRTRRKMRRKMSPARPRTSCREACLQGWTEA
As to the kind of experiment: cell-based or functional assay.

For assay [2], the target named is T2, protein having an Fc region and a His-tag added to the N-terminus of SEQ ID NO: 1.
T2 construct: also called mutant CALR protein (antigen of the BLItz measurement); not shown: Fc region and His-tag at the N-terminus
T2 chain: RRMMRTKMRMRRM
As to the kind of experiment: BLItz biolayer interferometry, Fc/His-SEQ ID NO: 1 protein on the biosensor. The method, boiled down:
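The Fc/His-tagged protein was loaded at 0.1 mg/mL onto Anti-Penta-HIS or Protein A biosensors. Antibodies were run at 500, 100 and 50 nM by biolayer interferometry, and the dissociation constant was derived from these binding curves.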
A general note: BLI is a label-free optical method that tracks binding on a fibre tip over time.

For assay [3], the target named is T1, Ins 5 type mutant CALR protein on …. As to the kind of experiment: cell-based or functional assay. The source holds these as a separate data set.

B1: Antibody 86 (bispecific antibody)
chain 1: not shown
chain 2: DIQMTQSPSSLSASVGDRVTITCLASEDIYSYLAWYQQKPGKAPKLLIFAANRLQSGVPSRFSGSGSGTDFTLTISSLQPEDFATYYCLQGSKFPYTFGPGTKVDIKRTVAAPSVFIFPPSDEQLKSGTASVVCLLNNFYPREAKVQWKVDNALQSGNSQESVTEQDSKDSTYSLSSTLTLSKADYEKHKVYACEVTHQGLSSPVTKSFNRGEC
As usually defined, the Kd is the equilibrium constant for the complex coming apart. As for B1, the “EC50 of cytotoxic activity (pM)” value in assay [1] is 58 pM. In assay [2], this molecule yielded a Kd of less than 0.001 nM.

B2: Antibody 106 (bispecific antibody)
chain 1: QVQLVQSGAEVKKPGSSVKVSCKASGYTFTRNFIHWIRQAPGQGLEWIGWIFPGDADTEYNQKFSGRATITADKSTSTAYMELSSLRSEDTAVYYCARGNYNYEYFDYWGQGTMVTVSSASTKGPSVFPLAPSSKSTSGGTAALGCLVKDYFPEPVTVSWNSGALTSGVHTFPAVLQSSGLYSLSSVVTVPSSSLGTQTYICNVNHKPSNTKVDKRVEPKSCGGGGSQVQLVQSGGGVVQPGRSLRLSCKASGYTFTRYTMHWVRQAPGKGLEWIGYINPSRGYTNYNQKVKDRFTISRDNSKNTAFLQMDSLRPEDTGVYFCARYYDDHYSLDYWGQGTPVTVSSGGGGSGGGGSGGGGSDIQMTQSPSSLSASVGDRVTITCSASSSVSYMNWYQQTPGKAPKRWIYDTSKLASGVPSRFSGSGSGTDYTFTISSLQPEDIATYYCQQWSSNPFTFGQGTKLQITRHHHHHH
chain 2: B1 chain 2 with S56D
As for B2, in assay [1], the “EC50 of cytotoxic activity (pM)” value was 2560 pM. The molecule further came in with a Kd in assay [2] of 4.99 nM.

B3: Antibody 109 (bispecific antibody)
chain 1: not shown
chain 2: B1 chain 2
chain 3: DKTHTCPPCPAPEAAGGPSVFLFPPKPKDTLMISRTPEVTCVVVDVSHEDPEVKFNWYVDGVEVHNAKTKPREEQYNSTYRVVSVLTVLHQDWLNGKEYKCKVSNKALPAPIEKTISKAKGQPREPQVCTLPPSREEMTKNQVSLSCAVKGFYPSDIAVEWESNGQPENNYKTTPPVLDSDGSFFLVSKLTVDKSRWQQGNVFSCSVMHEALHNHYTQKSLSLSPGK
As to B3, in assay [1], the “EC50 of cytotoxic activity (pM)” value turned out to be 3800 pM. In addition, the Kd in assay [2] stood at 9.91 nM.

B4: Antibody 111 (bispecific antibody)
chain 1: not shown
chain 2: B1 chain 2
chain 3: B3 chain 3
B4: in assay [1], the “EC50 of cytotoxic activity (pM)” value stood at 6110 pM. Further, in assay [2], the Kd was determined as 12.8 nM.

B5: Antibody 89 (bispecific antibody)
chain 1: not shown
chain 2: B1 chain 2
Turning to B5, the “EC50 of cytotoxic activity (pM)” value in assay [1] turned out to be 77 pM. Also, the Kd in assay [2] was less than 0.001 nM.

B6: Antibody 107 (bispecific antibody)
chain 1: not shown
chain 2: B1 chain 2 with S56D
chain 3: B3 chain 3
B6: the “EC50 of cytotoxic activity (pM)” value in assay [1] amounted to 3870 pM. For the same molecule, binding in assay [2] was characterised by a dissociation constant (Kd) of 12.1 nM.

B7: Antibody 88 (bispecific antibody)
chain 1: not shown
chain 2: B1 chain 2
Take B7: the “EC50 of cytotoxic activity (pM)” value in assay [1] turned out to be 28 pM. The molecule further gave a Kd in assay [2] of less than 0.001 nM.

B8: Antibody 92 (bispecific antibody)
chain 1: not shown
chain 2: B1 chain 2
With B8, the “EC50 of cytotoxic activity (pM)” value in assay [1] stood at 47 pM. The dissociation constant (Kd) in assay [2] was less than 0.001 nM.

B9: Antibody 91 (bispecific antibody)
chain 1: not shown
chain 2: B1 chain 2
On to B9, for which the “EC50 of cytotoxic activity (pM)” value in assay [1] is 230 pM. For the same molecule, the Kd in assay [2] was less than 0.001 nM.

B10: Antibody 94 (bispecific antibody)
chain 1: not shown
chain 2: B1 chain 2 with S56D
For the molecule B10, the “EC50 of cytotoxic activity (pM)” value in assay [1] was found to be 32 pM. In assay [2], the Kd is less than 0.001 nM.

B11: Antibody 90 (bispecific antibody)
chain 1: not shown
chain 2: B1 chain 2
B11: in assay [1], the “EC50 of cytotoxic activity (pM)” value worked out at 269 pM. The molecule further showed a dissociation constant Kd in assay [2] of less than 0.001 nM.

B12: Antibody 110 (bispecific antibody)
chain 1: not shown
chain 2: B1 chain 2
chain 3: B3 chain 3
For the molecule B12, the “EC50 of cytotoxic activity (pM)” value in assay [1] amounted to 2540 pM. In assay [2], this molecule came in with a dissociation constant (Kd) of 5.33 nM.

B13: Antibody 101 (bispecific antibody, human IgG1, kappa, L234A L235A)
chain 1: not shown
chain 2: DIQMTQSPSFVSASVGDRVTITCLASEDIYSYLAWYQQKPGKAPKLLIFAANRLQDGVPSRFSGGGSGTGFTLTISSLQPEDFATYFCLQGSKFPYTFGQGTKLEINRTVAAPSVFIFPPSDEQLKSGTASVVCLLNNFYPREAKVQWKVDNALQSGNSQESVTEQDSKDSTYSLSSTLTLSKADYEKHKVYACEVTHQGLSSPVTKSFNRGECGGGGSGGGGSQVQLVQSGGGVVQPGRSLRLSCKASGYTFTRYTMHWVRQAPGKGLEWIGYINPSRGYTNYNQKVKDRFTISRDNSKNTAFLQMDSLRPEDTGVYFCARYYDDHYSLDYWGQGTPVTVSSGGGGSGGGGSGGGGSDIQMTQSPSSLSASVGDRVTITCSASSSVSYMNWYQQTPGKAPKRWIYDTSKLASGVPSRFSGSGSGTDYTFTISSLQPEDIATYYCQQWSSNPFTFGQGTKLQITR
With B13, in assay [1], the “EC50 of cytotoxic activity (pM)” value worked out at 1660 pM. In assay [2], this molecule had an equilibrium dissociation constant (Kd) of less than 0.001 nM.

B14: Antibody 103 (bispecific antibody, human IgG1, kappa, L234A L235A)
chain 1: not shown
chain 2: B13 chain 2 with F10S, V11L, D56S, G65S, G70D, F87Y, Q100P, L104V, E105D, N107K
For B14, the “EC50 of cytotoxic activity (pM)” value in assay [1] turned out to be 399 pM. In assay [2], this molecule registered an equilibrium dissociation constant (Kd) of less than 0.001 nM.

B15: Antibody 100 (bispecific antibody, human IgG1, kappa, L234A L235A)
chain 1: not shown
chain 2: B13 chain 2
Consider B15, for which the “EC50 of cytotoxic activity (pM)” value in assay [1] came to 1080 pM. The same molecule displayed a Kd in assay [2] of less than 0.001 nM.

B16: Antibody 102 (bispecific antibody, human IgG1, kappa, L234A L235A)
chain 1: not shown
chain 2: B13 chain 2 with D56S
On to B16, for which, in assay [1], the “EC50 of cytotoxic activity (pM)” value stood at 850 pM. This molecule yielded a Kd in assay [2] of less than 0.001 nM.

B17: Antibody 104 (bispecific antibody, human IgG1, kappa, L234A L235A)
chain 1: not shown
chain 2: B13 chain 2 with F10S, V11L, D56S, G65S, G70D, F87Y, Q100P, L104V, E105D, N107K
As for B17, the “EC50 of cytotoxic activity (pM)” value in assay [1] worked out at 621 pM. In assay [2], this molecule yielded a Kd of less than 0.001 nM.

B18: Antibody 15 (bispecific antibody, human IgG1, kappa, L234A L235A)
heavy: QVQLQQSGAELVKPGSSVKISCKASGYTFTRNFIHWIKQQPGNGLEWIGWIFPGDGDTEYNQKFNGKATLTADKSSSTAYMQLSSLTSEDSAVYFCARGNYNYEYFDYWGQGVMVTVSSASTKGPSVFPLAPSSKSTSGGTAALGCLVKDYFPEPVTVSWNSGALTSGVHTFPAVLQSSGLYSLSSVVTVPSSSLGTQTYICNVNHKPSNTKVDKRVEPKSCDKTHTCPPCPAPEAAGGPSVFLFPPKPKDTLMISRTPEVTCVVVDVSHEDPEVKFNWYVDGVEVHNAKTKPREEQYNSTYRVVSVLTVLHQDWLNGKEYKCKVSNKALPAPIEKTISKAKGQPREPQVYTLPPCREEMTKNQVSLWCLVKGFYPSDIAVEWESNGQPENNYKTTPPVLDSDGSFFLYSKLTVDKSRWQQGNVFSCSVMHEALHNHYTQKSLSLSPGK
light: DIQMTQSPASLSASLGETVSIECLASEDIYSYLAWYQQKPGKSPQLLIFAANRLQDGVPSRFSGSGSGTQFSLKISGMQPEDEGDYFCLQGSKFPYTFGPGTKLELNRTVAAPSVFIFPPSDEQLKSGTASVVCLLNNFYPREAKVQWKVDNALQSGNSQESVTEQDSKDSTYSLSSTLTLSKADYEKHKVYACEVTHQGLSSPVTKSFNRGEC
chain: QVQLVQSGGGVVQPGRSLRLSCKASGYTFTRYTMHWVRQAPGKGLEWIGYINPSRGYTNYNQKVKDRFTISRDNSKNTAFLQMDSLRPEDTGVYFCARYYDDHYSLDYWGQGTPVTVSSGGGGSGGGGSGGGGSDIQMTQSPSSLSASVGDRVTITCSASSSVSYMNWYQQTPGKAPKRWIYDTSKLASGVPSRFSGSGSGTDYTFTISSLQPEDIATYYCQQWSSNPFTFGQGTKLQITREPKSCDKTHTCPPCPAPEAAGGPSVFLFPPKPKDTLMISRTPEVTCVVVDVSHEDPEVKFNWYVDGVEVHNAKTKPREEQYNSTYRVVSVLTVLHQDWLNGKEYKCKVSNKALPAPIEKTISKAKGQPREPQVCTLPPSREEMTKNQVSLSCAVKGFYPSDIAVEWESNGQPENNYKTTPPVLDSDGSFFLVSKLTVDKSRWQQGNVFSCSVMHEALHNHYTQKSLSLSPGK
notes: B3 half IgG hetero-associated by knob-into-hole with hOKT3 scFv-Fc
Turning to B18, the “EC50 of cytotoxic activity (calcein release, T-LAK effector cells)” value in assay [3] is 1.29 nM. Also, in assay [2], binding was characterised by a dissociation constant (Kd) of 6.68 nM.

B19: Antibody 114 (bispecific antibody)
chain 1: DIQMTQSPSSLSASVGDRVTITCLASEDIYSYLAWYQQKPGKAPKLLIFAANRLQSGVPSRFSGSGSGTDFTLTISSLQPEDFATYYCLQGSKFPYTFGPGTKVDIKGGGGSGGGGSGGGGSQVQLVQSGAEVKKPGSSVKVSCKASGYTFTRNFIHWIRQAPGQGLEWIGWIFPGDADTEYNQKFSGRATITADKSTSTAYMELSSLRSEDTAVYYCARGNYNYEYFDYWGQGTMVTVSSGGGGSGGGGSGGGGSDKTHTCPPCPAPEAAGGPSVFLFPPKPKDTLMISRTPEVTCVVVDVSHEDPEVKFNWYVDGVEVHNAKTKPREEQYNSTYRVVSVLTVLHQDWLNGKEYKCKVSNKALPAPIEKTISKAKGQPREPQVCTLPPSREEMTKNQVSLSCAVKGFYPSDIAVEWESNGQPENNYKTTPPVLDSDGSFFLVSKLTVDKSRWQQGNVFSCSVMHEALHNHYTQKSLSLSPGK
chain 2: not shown
On to B19, for which, in assay [1], the “EC50 of cytotoxic activity (pM)” value is 790 pM. This molecule also registered a Kd in assay [2] of 6.06 nM.
